Biological target: methionine adenosyltransferase II regulatory β subunit, wild type (human MAT2B, V1 form) (human) (UniProt Q9NZL9)
Test: AUC; sedimentation equilibrium of purified β (0.2-0.5 mg/ml), 293 K

Substance “methionine adenosyltransferase II regulatory β subunit, wild type (human MAT2B, V1 form) (from UniProt Q9NZL9 1-334) (natural protein)” has a stoichiometry N of 2.
